Reference: patent US20150376265A1 (Genentech, published 2015)
Values joined by “and” are separate entries in the source; they are usually repeats but may differ in a detail not shown here. Identical values can stand only once. Like-named read-outs stand apart in the source and are kept apart here.

T1: HCMV gH on virions of strain VR1814 (HCMV, UniProt P12824 24-743)
T1 sequence: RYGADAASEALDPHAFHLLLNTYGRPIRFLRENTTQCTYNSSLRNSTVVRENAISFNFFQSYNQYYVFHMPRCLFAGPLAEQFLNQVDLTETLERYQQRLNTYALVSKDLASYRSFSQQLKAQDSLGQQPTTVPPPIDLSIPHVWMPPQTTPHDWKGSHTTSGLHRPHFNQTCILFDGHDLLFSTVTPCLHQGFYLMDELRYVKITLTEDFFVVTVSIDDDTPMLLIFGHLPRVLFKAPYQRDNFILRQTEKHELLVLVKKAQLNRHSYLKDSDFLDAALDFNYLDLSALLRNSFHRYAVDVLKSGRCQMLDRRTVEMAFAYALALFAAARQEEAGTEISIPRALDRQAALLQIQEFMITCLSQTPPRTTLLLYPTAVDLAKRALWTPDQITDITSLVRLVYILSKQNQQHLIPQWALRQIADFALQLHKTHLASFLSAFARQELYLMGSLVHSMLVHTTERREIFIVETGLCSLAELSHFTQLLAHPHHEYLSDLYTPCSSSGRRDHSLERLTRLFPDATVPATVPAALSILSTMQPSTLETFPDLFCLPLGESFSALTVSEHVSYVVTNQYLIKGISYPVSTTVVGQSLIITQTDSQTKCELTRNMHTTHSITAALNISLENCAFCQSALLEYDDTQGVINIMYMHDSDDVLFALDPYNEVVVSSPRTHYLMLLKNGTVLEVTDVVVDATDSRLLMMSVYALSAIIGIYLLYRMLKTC

B1: HB1 (D53N/T55R) (antibody, V domains shown)
VH: EEQVLESGGGLVKPGGSLRLSCAASGFTFSPYSVFWVRQAPGKGLEWVSSINSNSRYKYYADSVKGRFTISRDNAENSIFLQMNSLRAEDTAVYYCARDRSYYAFSSGSLSDYYYGLDVWGQGTLVTVSS
VL: DIVMTQSPLSLSVTPGEPASISCRSSQSLLHTNGYNYLDWYVQKPGQSPQLLIYLASNRASGVPDRFSGSGSGTDFTLKISRVETEDVGVYYCMQALQIPRTFGQGTKVEIK
B2: HB1 Fab fragment, H2-D53N/T55R (HB1) (Fab, V domains shown)
VH: B1 VH
VL: B1 VL

Experiments:
Assay in all cases: cell-based or functional assay
[1] = molecular target: T1, HCMV gH on virions of strain VR1814
[2] = molecular target: T1, HCMV gH on virions of strain VR1814; remark: listed apart in the source
[3] = molecular target: T1, HCMV gH on virions of strain VR1814; remark: listed apart in the source
[4] = molecular target: T1, HCMV gH on virions of strain VR1814; remark: listed apart in the source
[5] = molecular target: T1, HCMV gH on virions of strain VR1814; remark: listed apart in the source
[6] = molecular target: T1, HCMV gH on virions of strain VR1814; remark: listed apart in the source

Row | Binder | EC50, block of viral entry into fibroblasts [1] | Epithelial EC50 (first pair of columns), neutralisation [2] | Epithelial EC50 (second pair of columns), neutralisation [2] | Fibroblast EC50, neutralisation [2] | MDM EC50, neutralisation [2] | EC50 on epithelial cells, HB1 alone [3] | EC50 of HB1 in the presence of hu8G8 at .000128 µg/ml [4] | EC50 of HB1 in the presence of hu8G8 at .00064 µg/ml [4] | EC50 of HB1 in the presence of hu8G8 at .0032 µg/ml [4] | EC50 of HB1 with hu8G8 at 0 µg/ml [4] | HB1 EC50, neutralisation of the No Ab control virus [5] | HB1 EC50, neutralisation of hu8G8 - mutant virus 1 (UL131 Q47K, gH unchanged) [6] | HB1 EC50, neutralisation of hu8G8 - mutant virus 2 (UL131 K51E, gH unchanged) [6] | HB1 EC50, neutralisation of hu8G8 - mutant virus 3 (UL131 D46N, gH unchanged) [6] | HB1 EC50, neutralisation of the No Ab control virus [6] | EC50, inhibition of HCMV entry into ARPE-19 cells, Fab fragments from E. coli [1]
1 | B1 | 0.11 µg/ml and 0.7 nM | 0.05 µg/mL | 0.03 µg/mL | 0.11 µg/mL | 0.03 µg/mL | 0.063 µl/ml | 0.041 µg/mL | 0.043 µg/mL | 0.035 µg/mL | 0.03 µg/mL | 0.04 µg/mL | 0.18 µg/mL | 0.07 µg/mL | 0.06 µg/mL | 0.22 µg/mL | 
2 | B2 |  |  |  |  |  |  |  |  |  |  |  |  |  |  |  | 0.15 nM
